Reference: PMC4072347 (Biochemistry, 2014)

B1: IsdB^N1-L, IsdB residues Leu125-Asn339 (NEAT 1 domain with the linker) (domain or fragment)
chain: LNQELREAIKNPAIKDKDHSAPNSRPIDFEMKKKDGTQQFYHYASSVKPARVIFTDSKPEIELGLQSGQFWRKFEVYEGDKKLPIKLVSYDTVKDYAYIRFSVSNGTKAVKIVSSTHFNNKEEKYDYTLMEFAQPIYNSADKFKTEEDYKAEKLLAPYKKAKTLERQVYELNKIQDKLPEKLKAEYKKKLEDTKKALDEQVKSAITEFQNVQPTN
B2: IsdH NEAT1 (IsdH^N1), residues Ala86-Leu229 (domain or fragment)
chain: ADESLKDAIKDPALENKEHDIGPREQVNFQLLDKNNETQYYHFFSIKDPADVYYTKKKAEVELDINTASTWKKFEVYENNQKLPVRLVSYSPVPEDHAYIRFPVSDGTQELKIVSSTQIDDGEETNYDYTKLVFAKPIYNDPSL
B3: IsdH NEAT2 (IsdH^N2), residues Gln321-Asn464 (domain or fragment)
chain: QQYPPADESLQDAIKNPAIIDKEHTADNWRPIDFQMKNDKGERQFYHYASTVEPATVIFTKTGPIIELGLKTASTWKKFEVYEGDKKLPVELVSYDSDKDYAYIRFPVSNGTREVKIVSSIEYGENIHEDYDYTLMVFAQPITN

target: human methemoglobin (metHb) (human, UniProt P69905;P68871); assay: SEC
Sequence (P69905 whole entry, chain 1 of 2): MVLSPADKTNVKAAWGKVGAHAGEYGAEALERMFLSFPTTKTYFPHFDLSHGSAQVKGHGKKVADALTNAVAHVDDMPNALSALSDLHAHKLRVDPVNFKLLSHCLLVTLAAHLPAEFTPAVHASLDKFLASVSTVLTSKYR
Sequence (P68871 whole entry, chain 2 of 2): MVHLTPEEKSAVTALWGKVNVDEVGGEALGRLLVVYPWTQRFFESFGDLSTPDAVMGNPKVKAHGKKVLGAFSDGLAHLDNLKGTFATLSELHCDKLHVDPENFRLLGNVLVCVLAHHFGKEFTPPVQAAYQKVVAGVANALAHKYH

Row | Binder | stoichiometry N
1 | B1 | < 1 IsdB^N1-L per metHb
2 | B2 | 1 IsdH NEAT domain per metHb (alpha/beta dimer)
3 | B3 | 1 IsdH NEAT domain per metHb (alpha/beta dimer)
